{
  "source": "IntAct's records for PubMed 10633111",
  "parents": {"B1": {"name": "Protein virB8 (Agrobacterium tumefaciens (strain C58 / ATCC 33970)), P17798 (parent)", "chain": "MKGSEYALLVARETLAEHYKEVEAFQTARAKSARRLSKVIAAVATIAVLGNVAQAFTIATMVPLIRLVPVYLWIRPDGTVDSEVSVSRLPATQEEAVVNASLWEYVRLRESYDADTAQYAYDLVSNFSAPMVRQNYQQFFNYPNPTSPQVILGKHGRLEVEHIASNDVTPGVQQIRYKRTLIVDGKMPMASTWTATVRYEKVTSLPGRLRLTNPGGLVVTSYQTSEDTVSNAGHSEP", "partner": "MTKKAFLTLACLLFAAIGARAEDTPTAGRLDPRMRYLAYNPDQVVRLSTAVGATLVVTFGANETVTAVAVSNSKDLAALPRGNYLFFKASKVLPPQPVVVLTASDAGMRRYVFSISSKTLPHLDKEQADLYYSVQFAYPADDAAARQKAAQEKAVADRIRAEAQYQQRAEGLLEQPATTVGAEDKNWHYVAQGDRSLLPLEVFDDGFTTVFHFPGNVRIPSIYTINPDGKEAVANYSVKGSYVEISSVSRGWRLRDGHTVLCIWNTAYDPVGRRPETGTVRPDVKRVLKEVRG"}, "B2": {"name": "Protein virB8 (Agrobacterium tumefaciens (strain C58 / ATCC 33970)), P17798 (parent)", "chain": "B1 chain", "partner": "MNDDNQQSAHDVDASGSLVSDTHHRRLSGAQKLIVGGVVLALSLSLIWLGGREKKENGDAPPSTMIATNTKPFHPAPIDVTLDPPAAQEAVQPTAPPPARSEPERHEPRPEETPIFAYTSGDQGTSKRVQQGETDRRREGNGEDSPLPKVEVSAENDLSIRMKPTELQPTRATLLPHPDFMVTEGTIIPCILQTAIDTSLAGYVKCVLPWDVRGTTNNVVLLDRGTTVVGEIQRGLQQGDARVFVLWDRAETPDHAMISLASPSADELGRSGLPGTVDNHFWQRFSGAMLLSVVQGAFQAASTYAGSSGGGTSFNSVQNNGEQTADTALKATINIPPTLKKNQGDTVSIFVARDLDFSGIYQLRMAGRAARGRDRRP"}},
  "data": [
    {"variants_of": "B1", "settings": "with virb9_agrfc virB9, P17799", "values": [
      {"variant": "S87L", "effect of a mutation on the interaction": "disrupting interaction"}
    ]},
    {"variants_of": "B2", "settings": "with virba_agrfc virB10, P17800", "values": [
      {"variant": "S87L", "effect of a mutation on the interaction": "decreasing interaction"}
    ]}
  ]
}
